Source: publication doi:10.1101/2020.02.14.947937 (bioRxiv, 2020)

Target: the molecule itself
Test: cryo-EM structure

B1: mouse homomeric 5-HT3A receptor (receptor, UniProt P23979 24-489, looked up)
chain: SRRRATQARDTTQPALLRLSDHLLANYKKGVRPVRDWRKPTTVSIDVIMYAILNVDEKNQVLTTYIWYRQYWTDEFLQWTPEDFDNVTKLSIPTDSIWVPDILINEFVDVGKSPNIPYVYVHHRGEVQNYKPLQLVTACSLDIYNFPFDVQNCSLTFTSWLHTIQDINITLWRSPEEVRSDKSIFINQGEWELLEVFPQFKEFSIDISNSYAEMKFYVIIRRRPLFYAVSLLLPSIFLMVVDIVGFCLPPDSGERVSFKITLLLGYSVFLIIVSDTLPATAIGTPLIGVYFVVCMALLVISLAETIFIVRLVHKQDLQRPVPDWLRHLVLDRIAWILCLGEQPMAHRPPATFQANKTDDCSGSDLLPAMGNHCSHVGGPQDLEKTPRGRGSPLPPPREASLAVRGLLQELSSIRHFLEKRDEMREVARDWLRVGYVLDRLLFRIYLLAVLAYSITLVTLWSIWHYS
modifications: N-linked carbohydrates
stoichiometry N: 5
